According to patent publication US20030170895A1, “Methods of making hypermutable cells using PMSR homologs” (priority 2002, published 2003):

B1: PMSR2: human PMS2 related gene/protein, PMS2 homolog, dominant negative mismatch repair inhibitor (SEQ ID NO:17/18) (protein, listed as Homo sapiens)
chain: MAQPKQERVARARHQRSETARHQRSETAKTPTLGNRQTPTLGNRQTPRLGIHARPRRRATTSLLTLLLAFGKNAVRCALIGPGSLTSRTRPLTEPLGEKERREVFFPPRPERVEHNVESSRWEPRRRGACGSRGGNFPSPRGGSGVASLERAENSSTEPAKAIKPIDRKSVHQICSGPVVPSLRPNAVKELVENSLDAGATNVDLKLKDYGVDLIEVSGNGCGVEEENFEGFTLKHHTCKIQEFADLTQVETFGFRGEALSSLCALSDVTISTCRVSAKVGTRLVFDHYGKIIQKTPYPRPRGMTVSVKQLFSTLPVHHKEFQRNIKKKRACFPFAFCRDCQFPEASPAMLPVQPVELTPRSTPPHPCSLEDNVITVFSSVKNGPGSSR
B2: PMSR3: human PMS2 homolog, dominant negative mismatch repair inhibitor (SEQ ID NO:19/20) (protein, listed as Homo sapiens)
chain: MCPWRPRLGRRCMVSPREADLGPQKDTRLDLPRSPARAPREQNSLGEVDRRGPREQTRAPATAAPPRPLGSRGAEAAEPQEGLSATVSACFQEQQEMNTLQGPVSFKDVAVDFTQEEWRQLDPDEKIAYGDVMLENYSHLVSVGYDYHQAKHHHGVEVKEVEQGEEPWIMEGEFPCQHSPEPAKAIKPIDRKSVHQICSGPVVLSLSTAVKELVENSLDAGATNIDLKLKDYGVDLIEVSDNGCGVEEENFEGLISFSSETSHM

What was measured:
[1] = system: wild type yeast cell; conditions: mutagen treatment; Boeke et al. 1984; cited from earlier work
[2] = system: Yeast cells that express hPMS2-R2; test: Chemical mutagen (EMS) plus MMR-defective yeast, ura mutant selection on 5-FOA plates; format: cell-based; conditions: EMS 0-200 pM, 30-120 minutes; PMS2-R2 cultures induced with methanol vs uninduced parental or wild type strain
Source text: It has been previously documented that MMR deficiency yields to increased mutation frequency and increased resistance to toxic effects of chemical mutagens (CM) and their respective analogues such as but not limited to those as: ethidium bromide, EMS, MNNG, MNU, Tamoxifen, 8-Hydroxyguanine, as well as others listed but not limited to in publications by: Khromov-Borisov, N. N., et al. (1999) Mutat. Res. 430:55-74; Ohe, T. et al. (1999) Mutat. Res. 429:189-199; Hour, T. C. et al. (1999) Food Chem. Toxicol. 37:569-579; Hrelia, P. et al. (1999) Chem. Biol. Interact. 118:99-111; Garganta, F. et al. (1999) Environ. Mol. Mutagen. 33:75-85; Ukawa-Ishikawa S. et al. (1998) Mutat. Res. 412:99-107; www.ehs.utah.edu/ohh/mutagens; Marcelino, L. A. et al (1998) Cancer Res. 58(13):2857-2862; Koi, M. et al. (1994) Cancer Res. 54:4308-4312. Mismatch repair provokes chromosome aberrations in hamster cells treated with methylating agents or 6thioguanine, but not with ethylating agents.
Yeast cells that express hPMS2-R2 (induced or un-induced) and empty vector control cells are grown as described in Examples 5 and 6) and for 24 hours and diluted into MM medium as described above. Next, the cells in MM are incubated either with or without increasing amounts of ethyl methane sulfonate (EMS) from 0, 1, 10, 50, 100, and 200 pM. […] Mutants are selected and scored as above. […]

[3] = system: Pichia pastoris yeast cells; test: Generation of uracil requiring mutants, 5-FOA selection after methanol induction; format: cell-based
Procedure: Pichia pastoris yeast cells were transformed with pPIC3.5K vector, pPIC3.5K-PMS134, and pPIC3.5K-hR2 as follows. First, 5 ml of YPD (1% yeast extract, 2% bacto-peptone, 1% dextrose) medium was inoculated with a single colony from a YPD plate (same as YPD liquid but add 2% Difco agar to plate) and incubated with shaking overnight at 30° C. The overnight culture was used to inoculate 500 ml of YPD medium (200 ul of overnight culture) and the culture incubated at 30° C. until the optical density at 600 nm reached 1.3 to 1.5. The cells were then spun down (4000×g for 10 minutes), and then washed 2 times in sterile water (one volume each time), then the cells suspended in 20 ml of 1 M sorbitol. The sorbitol/cell suspension was spun down (4,000×g for 10 minutes) and suspended in 1 ml of 1 M sorbitol. 80 ul of the cell suspension was mixed with 5 to 10 ug of linearized plasmid DNA and placed in a 0.2 cm cuvette, pulsed length 5 to 10 milliseconds at field strength of 7,500 V/cm. Next, the cells are diluted in 1 ml of 1 M sorbitol and transferred to a 15 ml tube and incubated at 30° C. for 1 to 2 hours without shaking. Next, the cells are spun out (4,000×G for 10 minutes) and suspended in 100 ul of sterile water, and 50 ul/plate spread onto the appropriate selective medium plate. The plates are incubated for 2 to 3 days at 30° C. and colonies patched out onto YPD plates for further testing. […]

[4] = system: 293 cells; test: β-galactosidase activity from MMR-sensitive pCAR-OF reporter; format: cell-based; conditions: 293 cells expressing the homolog plus pCAR-OF reporter, grown 17 days; FIG. 5
Source text: Cells in which MMR activity is decreased results in MI leading to insertion-deletion mutations within the β-galactosidase gene, a subset of which will restore the open reading frame (ORF) and produce functional enzyme. Cells are grow for 17 days and then harvested for protein lysates to measure β-galactosidase activity generated by each cell line. Cells in which a high rate of mutagenesis has occurred will produce β-galactosidase activity, while cells in which MMR activity is functional will retain background levels of enzymatic activity. Each cell line was tested in two independent experiments (experiment 1 and experiment 2). Extracts were incubated with a calorimetric galactose substrate for 1 hour. Enzyme activity as a function of substrate conversion was measured by optical density at 576 nm as described (Nicolaides, N. C. et al. (1998) Mol. Cell. Biol. 18:1635-1641). […] MI was monitored at the gene level to confirm that genetic alterations occurred within the polynucleotide repeat disrupting the β-galactosidase ORF.

Molecule | number of ura mutants [1] | frequency of ura mutants [2] | uracil requiring clones on 5-FOA selection medium ([3]; methanol induced culture) | colonies resistant to 5-FOA ([3]; uninduced culture) | microsatellite instability / β-galactosidase activity [4]
CCOS(C)(=O)=O [EMS, ethyl methane sulfonate] | low number of ura mutants | increase in the frequency of ura mutants |  |  | 
B1 |  |  | have clones that are capable of growth on the selection medium | does not have any colonies that are resistant to 5-FOA | high degree of MI leading to an increase in β-galactosidase activity
B2 |  |  |  |  | high degree of MI leading to an increase in β-galactosidase activity
